Patent publication US20110206616A1

Target: SNAP 25 (endogenous, rat neuronal cells) (rat) (UniProt P60881)
Assay: cell-based or functional assay

Sequence of UniProt P60881 (P60881 whole entry): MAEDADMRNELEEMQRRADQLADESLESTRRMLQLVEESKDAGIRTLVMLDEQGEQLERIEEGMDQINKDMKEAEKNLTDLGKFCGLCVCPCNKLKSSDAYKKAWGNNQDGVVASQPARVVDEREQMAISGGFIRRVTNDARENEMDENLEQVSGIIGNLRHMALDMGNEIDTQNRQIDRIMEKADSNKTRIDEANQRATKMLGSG

With “wt BoNT/A (wild type botulinum neurotoxin serotype A) (from UniProt P0DPI1 2-1296)” the intracellular SNAP 25 cleavage (concentration of wt toxin used) was 0.5 nM.
